The text below walks through data of publication doi:10.1101/2025.04.08.647717.

Assay [1] concerns the target XauDREN-APAZ protein (Xanthobacter autotrophicus strain Py2). As to the kind of experiment: cryo-EM structure.
The target in assay [2] is XauHSH (XauSPARDA whose XauAgo carries a 29 aa HSH-tag at the C-terminus) (Xanthobacter autotrophicus strain Py2). As to the kind of experiment: SEC-MALS.
Assay [3] concerns the target XauE37A (XauSPARDA with E37A in the DREN domain of DREN-APAZ) (Xanthobacter autotrophicus strain Py2). As to the kind of experiment: SEC-MALS. (SEC sorts molecules by how far they enter the pores of the column.)
The target of assay [4] is WT XauSPARDA (binary DREN-APAZ:Ago monomer) (Xanthobacter autotrophicus strain Py2). Briefly: SEC-MALS.
Assay [5] deals with EaeE37A (EaeSPARDA with E37A in the DREN domain of DREN-APAZ) (Enhydrobacter aerosaccus). Briefly: SEC-MALS.
The target of assay [6] is WT EaeSPARDA (binary DREN-APAZ:Ago monomer) (Enhydrobacter aerosaccus). Briefly: SEC-MALS.

What is called stoichiometry N is the number of molecules, sites or subunits per partner or assembly.

As for XauDREN-APAZ protein (natural protein), in assay [1], the stoichiometry N stood at 4. Regarding “XauHSH (XauSPARDA whose XauAgo carries a 29 aa HSH-tag at the C-terminus) (complex)”, the stoichiometry N in assay [2] came out at 2. “XauE37A (XauSPARDA with E37A in the DREN domain of DREN-APAZ) (complex)” had a stoichiometry N in assay [3] of 2. “WT XauSPARDA (binary DREN-APAZ:Ago monomer) (complex)” yielded a stoichiometry N in assay [4] of 2. Consider “EaeE37A (EaeSPARDA with E37A in the DREN domain of DREN-APAZ) (complex)”, for which, in assay [5], the stoichiometry N was found to be 2. “WT EaeSPARDA (binary DREN-APAZ:Ago monomer) (complex)” gave a stoichiometry N in assay [6] of 2.
